Measurements published in PMC9188544, “Mechanism of glycogen synthase inactivation and interaction with glycogenin” (Nature Communications, 2022).
Changes are numbered by the printed parent chain. Names and notes keep the numbering of the source. Each block holds one binder with its values, some of them ahead of it.

Tests used:
[1] = target: T1, human glycogenin 1 (GN1), full length, wild type, glucosylated (human), P46976; test: negative-stain electron microscopy; purified co-expressed complex at 0.01-0.02 mg/mL in 25 mM HEPES pH 7.5, 150 mM NaCl, 1 mM TCEP, 10% glycerol; uranyl acetate stain; 2D classes and 3D map (C1, ~22 Å); settings: remark: other sources report otherwise
T1 chain: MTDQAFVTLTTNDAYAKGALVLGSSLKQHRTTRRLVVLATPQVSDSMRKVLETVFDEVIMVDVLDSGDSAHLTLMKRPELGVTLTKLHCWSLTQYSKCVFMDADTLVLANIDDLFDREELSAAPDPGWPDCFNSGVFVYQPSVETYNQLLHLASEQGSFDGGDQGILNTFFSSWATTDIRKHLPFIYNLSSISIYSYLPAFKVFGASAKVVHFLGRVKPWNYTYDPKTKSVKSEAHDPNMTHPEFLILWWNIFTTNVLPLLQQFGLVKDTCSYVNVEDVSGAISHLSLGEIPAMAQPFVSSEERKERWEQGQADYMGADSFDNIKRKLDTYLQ

[2] = target: T2, human glycogenin 1 (GN1) Y195F, full length, non-glucosylated (human, UniProt P46976-2 1-333, Y195F); test: mass photometry; purified co-expressed complex diluted to 50 nM in 25 mM HEPES pH 7.5, 150 mM NaCl, 1 mM TCEP; Refyn OneMP, 60 s movies; settings: both partners purified
T2 construct: glycogenin 1, human, encoded by GYG1, cDNA NM 001184720, full length; expected ~37.5 kDa; the C-terminal GN34 region is modelled as residues 300-332, which fits the 333-residue isoform; Cloned in pFL (with untagged GS) and in pFastBac (co-infected with His6-TEV-GS WT or mutants); Both carry an N-terminal His6 tag and a cleavable site, so they are treated as one molecule; also called GN(Y195F); GN …
T2 sequence (looked up): T1 chain with Y195F

[3] = target: T3, human glycogenin 1 (GN1), full length, wild type, glucosylated (human, UniProt P46976-2 1-333, auto-glucosylated at tyrosine 195 (heterogeneous glucose chains; smear on SDS-PAGE, PAS positive)); test: negative-stain electron microscopy; purified co-expressed complex at 0.01-0.02 mg/mL in 25 mM HEPES pH 7.5, 150 mM NaCl, 1 mM TCEP, 10% glycerol; uranyl acetate stain; 2D classes and 3D map (C1, ~22 Å); settings: both partners purified
T3 construct: glycogenin 1, human, encoded by GYG1, cDNA NM 001184720, full length; expected ~37.5 kDa; the C-terminal GN34 region is modelled as residues 300-332, which fits the 333-residue isoform; The isoform is inferred from the printed transcript id, the ~37.5 kDa size and the GN34 numbering; also called GN WT; HsGN; not shown: His6, N-terminal, cleaved
T3 sequence (looked up): T1 chain

[4] = target: the molecule itself; test: cryo-EM structure; purified GS-GN (WT) complex at 0.36 mg/mL (2.97 μM), 8% glycerol; map at 6.0 Å
[5] = target: the molecule itself; test: mass photometry; purified co-expressed complex diluted to 50 nM in 25 mM HEPES pH 7.5, 150 mM NaCl, 1 mM TCEP; Refyn OneMP, 60 s movies

- stoichiometry N [1]: 2
B1: human glycogenin 1 (GN1), full length, wild type, glucosylated, P46976-2 1-333 (enzyme)
chain: T1 chain
modifications: here or on the partner: auto-glucosylated at tyrosine 195 (heterogeneous glucose chains; smear on SDS-PAGE, PAS positive); auto-glucosylated at tyrosine 195 (heterogeneous glucose chains; smear on SDS-PAGE, PAS positive)

- stoichiometry N [2]: 1 GS per GN (4:4)
- stoichiometry N [3]: 1 GS per GN (4:4)
B2: human glycogen synthase 1 (GS1), full length, phosphorylated, co-expressed with GN1 from the pFL vector (enzyme, UniProt P13807 1-737, looked up)
chain: MPLNRTLSMSSLPGLEDWEDEFDLENAVLFEVAWEVANKVGGIYTVLQTKAKVTGDEWGDNYFLVGPYTEQGVRTQVELLEAPTPALKRTLDSMNSKGCKVYFGRWLIEGGPLVVLLDVGASAWALERWKGELWDTCNIGVPWYDREANDAVLFGFLTTWFLGEFLAQSEEKPHVVAHFHEWLAGVGLCLCRARRLPVATIFTTHATLLGRYLCAGAVDFYNNLENFNVDKEAGERQIYHRYCMERAAAHCAHVFTTVSQITAIEAQHLLKRKPDIVTPNGLNVKKFSAMHEFQNLHAQSKARIQEFVRGHFYGHLDFNLDKTLYFFIAGRYEFSNKGADVFLEALARLNYLLRVNGSEQTVVAFFIMPARTNNFNVETLKGQAVRKQLWDTANTVKEKFGRKLYESLLVGSLPDMNKMLDKEDFTMMKRAIFATQRQSFPPVCTHNMLDDSSDPILTTIRRIGLFNSSADRVKVIFHPEFLSSTSPLLPVDYEEFVRGCHLGVFPSYYEPWGYTPAECTVMGIPSISTNLSGFGCFMEEHIADPSAYGIYILDRRFRSLDDSCSQLTSFLYSFCQQSRRQRIIQRNRTERLSDLLDWKYLGRYYMSARHMALSKAFPEHFTYEPNEADAAQGYRYPRPASVPPSPSLSRHSSPHQSEDEEDPRNGPLEEDGERYDEDEEAAKDRRNIRAPEWPRRASCTSSTSGSKRNSVDTATSSSLSTPSEPLSPTSSLGEERN
modifications: phosphoserine mapped by MS/MS at S8, S412, S641, S645, S652, S653, S657, S727, S731; phospho-S641 modelled in the cryo-EM map
notes: glycogen synthase 1 (muscle), human, encoded by GYS1, cDNA NM 002103, full length; In the pFL construct only GN carries the His tag; also called HsGS; GS WT
- stoichiometry N [4]: 4

B3: human glycogen synthase 1 (GS1) Y600A (enzyme, UniProt P13807 1-737, looked up)
chain: B2 chain with Y600A
modifications: phosphorylation at S8, S641 and S641/S645 probed by immunoblot (Fig. 4b)
notes: glycogen synthase 1 (muscle), human, encoded by GYS1, cDNA NM 002103; also called GS Y600A; not shown: His6, N-terminal, cleaved
- binding result [5]: binds

B4: human glycogen synthase 1 (GS1) R603A (enzyme, UniProt P13807 1-737, looked up)
chain: B2 chain with R603A
modifications: phosphorylation at S8, S641 and S641/S645 probed by immunoblot (Fig. 4b)
notes: glycogen synthase 1 (muscle), human, encoded by GYS1, cDNA NM 002103; also called GS R603A; not shown: His6, N-terminal, cleaved
- binding result [5]: binds

B5: human glycogen synthase 1 (GS1) H610E (enzyme, UniProt P13807 1-737, looked up)
chain: B2 chain with H610E
modifications: phosphorylation at S8, S641 and S641/S645 probed by immunoblot (Fig. 4b)
notes: glycogen synthase 1 (muscle), human, encoded by GYS1, cDNA NM 002103; also called GS H610E; not shown: His6, N-terminal, cleaved
- binding result [5]: binds

B6: human glycogen synthase 1 (GS1) W18A (enzyme, UniProt P13807 1-737, looked up)
chain: B2 chain with W18A
modifications: phosphorylation at S8, S641 and S641/S645 probed by immunoblot (Fig. 4b)
notes: glycogen synthase 1 (muscle), human, encoded by GYS1, cDNA NM 002103; also called GS W18A; not shown: His6, N-terminal, cleaved
- binding result [5]: binds
